This note sets out measurements from patent publication US20210100916A1, “PREPARATION AND USE OF MITOCHONDRION-TARGETING SELF-ASSEMBLED PROTEIN NANOPARTICLE” (PEKING UNIVERSITY, priority 2018, published 2021).

For one data set, the system named is U87MG cells. The experiment in a line: ROS content in cells (DCFH-DA probe, confocal imaging). In kind it is cell-based. The settings on record: 6 μmo/L, 24 hours, 10 μmol/L DCFH-DA, FIGS. 6 and 7. How it is done: Taking U87MG cell line as an example, 5×10^4 U87MG cells were added to a confocal dish and incubated overnight at 37° C. and 5% CO2; GSTP1-MT3(Fe^2+) and GSTP1-MT3(Co^2+) prepared in Example 3 were added to it (the final concentration was 6 μmo/L) and incubated again for 24 hours, and then washed with PBS for three times; then, 10 μmol/L DCFH-DA (ROS probe) was added, incubated at 37° C. for 30 minutes, and washed with PBS for three times; finally, confocal imaging was performed, and statistics was performed on the ROS content.

The nature of data set [1]: Body weight / toxicity during breast cancer treatment. It counts as in vivo, Balb/c mice. The settings on record: 100 μL of 30 pmol/L tail vein, 5 injections, vs PBS. How it is done:
Taking the breast cancer of Balb/c mice as an example, 3×10^6 4T1 (stable transfected Luciferase) breast cancer cells were inoculated into Balb/c mice; when the tumor grew to 50-70 mm^3, 100 μL of 30 pmol/L GSTP1-MT3(Co^2+) was injected through the tail vein as the experimental group, and 100μL of PBS was injected through the tail vein as the control group. The injection was performed once every two days, that is, the tail vein injection was performed on the 3rd, 5th, 7th, 9th and 11th day of the experiment, respectively. A total of 5 injections were given. The weights of the mice and the size of the tumor were recorded at different time points.

Turning to “GSTP1-MT3(Co^2+): Self-assembled protein nanoparticle of MT3-GGGGS-GSTP1 fusion protein (SEQ ID NO: 4) induced by Co^2+”, the “ROS content in cells” value in the data set with U87MG cells is reported as “significantly increase”. Further, in data set [1], the “body weights, experimental group vs control group” value was “not much different” and the “toxic or side effects on mice” value is given as “no obvious toxic or side effects”.
